Laboratory results published in patent US20230265179A1 (TWIST BIOSCIENCE, published 2023).
Residue numbers refer to the chain shown, from its start.

B1: CD40L-23 (VHH)
VHH: EVQLVESGGGLVQPGGSLRLSCAASGSIDRINAMGWFRQAPGKEREFVAVIYSSDGSTLYADSVKGRFTISADNSKNTAYLQMNSLKPEDTAVYYCAAEPYGSGSSLISEYDWGQGTLVTVSS
B2: CD40L-45 (VHH)
VHH: EVQLVESGGGLVQPGGSLRLSCAASGLNLSRLDMGWFRQAPGKEREFVAASSWTGANTYYADSVKGRFTISADNSKNTAYLQMNSLKPEDTAVYYCASDHYDTDIKSDVYNWGQGTLVTVSS
B3: CD40L-194 (antibody, V domains shown)
VH: EVQLLESGGGLVQPGGSLRLSCAASGFTFEDTEMDWVRQAPGKGLEWVSSITSEGGSTYYADSVKGRFTISRDNSKNTLYLQMNSLRAEDTAVYYCAKPDVLFDYWGQGTLVTVSS
VL: DIQMTQSPSSLSASVGDRVTITCRASQNINYYLNWYQQKPGKAPKLLIYQNDKRPSGVPSRFSGSGSGTDFTLTISSLQPEDFATYYCQQSYENPLTFGQGTKVEIK
notes: IgG2
B4: CD40L-202 (antibody, V domains shown)
VH: B3 VH with E30A, D31S, T32Y, D35T
VL: DIQMTQSPSSLSASVGDRVTITCRASQDIYQNLDWYQQKPGKAPKLLIYQDFKRPSGVPSRFSGSGSGTDFTLTISSLQPEDFATYYCQAWDNGAAVFGQGTKVEIK
notes: IgG2
B5: CD40L-195 (antibody, V domains shown)
VH: B3 VH with T28D, E30S, T32Y, D35S, D100G, V101R
VL: DIQMTQSPSSLSASVGDRVTITCSGDNIGSIYASWYQQKPGKAPKLLIYQNDKRPSGVPSRFSGSGSGTDFTLTISSLQPEDFATYYCQQGYNSNDVDNVFGQGTKVEIK
notes: IgG2
B6: CD40L-201 (antibody, V domains shown)
VH: B3 VH with E30A, D31S, T32Y, D35T
VL: DIQMTQSPSSLSASVGDRVTITCSGDNLRGYYASWYQQKPGKAPKLLIYGTSDLQSGVPSRFSGSGSGTDFTLTISSLQPEDFATYYCQAWDTNTVIFGQGTKVEIK
notes: IgG2
B7: CD40L-197 (antibody, V domains shown)
VH: B3 VH with T28D, E30S, T32Y, D35S, D100G, V101R, L102D
VL: DIQMTQSPSSLSASVGDRVTITCRTSQDIGNYLNWYQQKPGKAPKLLIYYDVNRPSGVPSRFSGSGSGTDFTLTISSLQPEDFATYYCQPSFYFPYTFGQGTKVEIK
notes: IgG2
B8: CD40L-203 (antibody, V domains shown)
VH: EVQLLESGGGLVQPGGSLRLSCAASGGYNFRDYMHWVRQAPGKGLEWVAEIRNKANNHATKYADSVKGRFTISRDNSKNTLYLQMNSLRAEDTAVYYCAKNLGQGFDYWGQGTLVTVSS
VL: DIQMTQSPSSLSASVGDRVTITCRASQSISSYVNWYQQKPGKAPKLLIYANTNGPSGVPSRFSGSGSGTDFTLTISSLQPEDFATYYCQSYDNSVRGSRVFGQGTKVEIK
notes: IgG2
B9: CD40L-76 (VHH)
VHH: EVQLVESGGGLVQPGGSLRLSCAASGRTFSTSAMGWFRQAPGKEREWVATIYSRSGGGTAYADSVKGRFTISADNSKNTAYLQMNSLKPEDTAVYYCAKEGYDWGDYVMDYWGQGTLVTVSS
B10: CD40L-26 (VHH)
VHH: EVQLVESGGGLVQPGGSLRLSCAASGLTFSRYEMGWFRQAPGKEREFVAAVTEDGSINYADSVKGRFTISADNSKNTAYLQMNSLKPEDTAVYYCAAEIGYYSGGTYFSSEAWGQGTLVTVSS
B11: CD40L-125 (VHH)
VHH: EVQLVESGGGLVQPGGSLRLSCAASGFTFDYYTMGWFRQAPGKEREFVAVIYSSDGSTLYADSVKGRFTISADNSKNTAYLQMNSLKPEDTAVYYCAIDEGMDYDGNFYDWGQGTLVTVSS
B12: CD40L-84 (VHH)
VHH: EVQLVESGGGLVQPGGSLRLSCAASGRISNINIMGWFRQAPGKEREFVAGISQSGGSTAYADSVKGRFTISADNSKNTAYLQMNSLKPEDTAVYYCSRDEKLGPYYFDYWGQGTLVTVSS
B13: CD40L-91 (VHH)
VHH: EVQLVESGGGLVQPGGSLRLSCAASGGTFSSFPMGWFRQAPGKEREFVAAISWSEDNTYYADSVKGRFTISADNSKNTAYLQMNSLKPEDTAVYYCASRLAFCGRDCYLPTDWGQGTLVTVSS
B14: CD40L-96 (VHH)
VHH: B13 VHH with S31A, F47W, S52T, W53S, E55G, N57S, T58I, A97T, D112T
B15: CD40L-106 (VHH)
VHH: EVQLVESGGGLVQPGGSLRLSCAASGLTFNDYAMGWFRQAPGKEREFVAGITNGGGRTSYADSVKGRFTISADNSKNTAYLQMNSLKPEDTAVYYCAADVGPTVKWGQGTLVTVSS
B16: CD40L-60 (VHH)
VHH: EVQLVESGGGLVQPGGSLRLSCAASGLNLSRLDMGWFRQAPGKEREFVAAVDNDDNTEYADSVKGRFTISADNSKNTAYLQMNSLKPEDTAVYYCASDHYDTDTKSDVYNWGQGTLVTVSS
B17: CD40L-102 (VHH)
VHH: EVQLVESGGGLVQPGGSLRLSCAASGLTFSRYEMGWFRQAPGKEREFVAAVTEDGSIYADSVKGRFTISADNSKNTAYLQMNSLKPEDTAVYYCAAEIGYYSGGTYFSSEAWGQGTLVTVSS
B18: CD40L-99 (VHH)
VHH: EVQLVESGGGLVQPGGSLRLSCAASGFTPDDYAMGWFRQAPGKEREFVADIMPYGSTEYADSVKGRFTISADNSKNTAYLQMNSLKPEDTAVYYCARRDAGIDFYYMDVWGQGTLVTVSS
B19: CD40L-105 (VHH)
VHH: EVQLVESGGGLVQPGGSLRLSCAASGITFSSRTMGWFRQAPGKEREFVAAIRSSGGLFYADSVKGRFTISADNSKNTAYLQMNSLKPEDTAVYYCAAQDRRHGDYYTFDYHWGQGTLVTVSS
B20: CD40L-114 (VHH)
VHH: EVQLVESGGGLVQPGGSLRLSCAASGRTFSPYIMGWFRQAPGKEREFVAEIGWRDTTLYADSVKGRFTISADNSKNTAYLQMNSLKPEDTAVYYCAARRGGDYLPTDWGQGTLVTVSS
B21: CD40L-103 (VHH)
VHH: EVQLVESGGGLVQPGGSLRLSCAASGRSFSSVYAMGWFRQAPGKEREFIAVIYWRDGSSLYADSVKGRFTISADNSKNTAYLQMNSLKPEDTAVYYCAAEPYGSGSSLISEYDWGQGTLVTVSS
B22: CD40L-80 (VHH)
VHH: EVQLVESGGGLVQPGGSLRLSCAASGFTFDDYDMGWFRQAPGKERELVASITSGGSTNYADSVKGRFTISADNSKNTAYLQMNSLKPEDTAVYYCAIPHGIDLYTFDWGQGTLVTVSS
B23: CD40L-98 (VHH)
VHH: EVQLVESGGGLVQPGGSLRLSCAASGITFKRYDMGWFRQAPGKEREVVAVIYTSDGSTYYADSVKGRFTISADNSKNTAYLQMNSLKPEDTAVYYCAADRDRYRDGMGPMTTTDFRWGQGTLVTVSS
B24: CD40L-111 (VHH)
VHH: EVQLVESGGGLVQPGGSLRLSCAASGDTSEINDMGWFRQAPGKEREFVAAIYPSGRNAYYADSVKGRFTISADNSKNTAYLQMNSLKPEDTAVYYCAIPHGIAGRITWGQGTLVTVSS
B25: CD40L-73 (VHH)
VHH: EVQLVESGGGLVQPGGSLRLSCAASGFTLGNYAMGWFRQAPGKEREFVASITSYGDTYYADSVKGRFTISADNSKNTAYLQMNSLKPEDTAVYYCARDGYTYGVDYWGQGTLVTVSS
B26: CD40L-115 (VHH)
VHH: EVQLVESGGGLVQPGGSLRLSCAASGRTFSRYEMGWFRQAPGKEREFVAAVTEDGSTYYADSVKGRFTISADNSKNTAYLQMNSLKPEDTAVYYCAIAHGSSTYNWGQGTLVTVSS
B27: CD40L-74 (VHH)
VHH: EVQLVESGGGLVQPGGSLRLSCAASGRTFSSYYMGWFRQAPGKERELVAVIYTSDGSTYYADSVKGRFTISADNSKNTAYLQMNSLKPEDTAVYYCAAWLNGGNRWGQGTLVTVSS
B28: CD40L-82 (VHH)
VHH: B27 VHH with T28I, S31T, Y33F, L47G, V50T, S54G, D55N, S57Y, Y59L
B29: CD40L-122 (VHH)
VHH: EVQLVESGGGLVQPGGSLRLSCAASGLLFSSYDMGWFRQAPGKEREFVAAISWSTGSGDDTYYADSVKGRFTISADNSKNTAYLQMNSLKPEDTAVYYCASDHYDTDTKSDVYNWGQGTLVTVSS

Each binder was assayed against T1, CD40L over-expressed on Expi293 cells (UniProt P29965 1-261, limits assumed) (assay: flow cytometry, 100 nM antibody, CD40L-Expi293 vs parent Expi293 cells;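 further: ratio is the mean fluorescence intensity on CD40L-overexpressing Expi293 cells divided by the mean fluorescence intensity on parental Expi293 cells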).
T1 construct: whole, on cells; also called cytokine over-expressing Expi293 cells
T1 sequence (looked up): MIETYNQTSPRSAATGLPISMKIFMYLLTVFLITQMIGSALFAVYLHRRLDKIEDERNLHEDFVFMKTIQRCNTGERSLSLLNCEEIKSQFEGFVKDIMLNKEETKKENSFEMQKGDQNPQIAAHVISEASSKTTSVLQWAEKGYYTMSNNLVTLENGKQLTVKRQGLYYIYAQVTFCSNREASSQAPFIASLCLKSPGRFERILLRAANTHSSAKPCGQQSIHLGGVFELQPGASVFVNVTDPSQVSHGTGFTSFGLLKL
Experimental: All incubations and washes were in buffer containing PBS+1% BSA. MFI Ratio is defined by the mean fluorescence intensity (MFI) of the cytokine over-expressing Expi293 cell over the Expi293 parent cell. […] EC50 was calculated in GraphPad Prism.

Compared with B1, B2 is higher in “100 nM FACS (MFI Ratio)” value: 44.4 ratio for the first, 93.9 ratio for the second.

First: B3
Second: B4
The “100 nM FACS (MFI Ratio)” value of the first is lower: 7.3 ratio for the first, 14.2 ratio for the second.

First: B5
Second: B6
The “100 nM FACS (MFI Ratio)” value of the first is higher: 16.8 ratio for the first, 6.9 ratio for the second.

Going from B7 to B8, the “100 nM FACS (MFI Ratio)” value rises from 3.6 ratio to 6.7 ratio.

Compared with B9, B10 is higher in “100 nM FACS (MFI Ratio)” value: 9.6 ratio for the first, 123 ratio for the second.

Compared with B11, B12 is higher in “100 nM FACS (MFI Ratio)” value: 6.6 ratio for the first, 12.7 ratio for the second.

Going from B13 to B14, the “100 nM FACS (MFI Ratio)” value falls from 4.3 ratio to 3.7 ratio.

Compared with B15, B16 is higher in “100 nM FACS (MFI Ratio)” value: 2.7 ratio for the first, 50.4 ratio for the second.

Compared with B17, B18 is higher in “100 nM FACS (MFI Ratio)” value: 1.8 ratio for the first, 3.1 ratio for the second.

Compared with B19, B20 is higher in “100 nM FACS (MFI Ratio)” value: 4.5 ratio for the first, 7.3 ratio for the second.

Compared with B21, B22 is higher in “100 nM FACS (MFI Ratio)” value: 3.6 ratio for the first, 4.6 ratio for the second.

Compared with B23, B24 is higher in “100 nM FACS (MFI Ratio)” value: 6.4 ratio for the first, 9.7 ratio for the second.

Going from B25 to B26, the “100 nM FACS (MFI Ratio)” value rises from 10.9 ratio to 16.8 ratio.

Going from B27 to B28, the “100 nM FACS (MFI Ratio)” value rises from 8.7 ratio to 18.6 ratio.

In the case of B29, the “100 nM FACS (MFI Ratio)” value is reported as 14.2 ratio.

Each binder was assayed against T2, CD40L (UniProt P29965 113-261, limits assumed) (assay: SPR (Carterra LSA), antibody amine-coupled, 1:1 model).
T2 construct: SPR analyte
T2 sequence (looked up): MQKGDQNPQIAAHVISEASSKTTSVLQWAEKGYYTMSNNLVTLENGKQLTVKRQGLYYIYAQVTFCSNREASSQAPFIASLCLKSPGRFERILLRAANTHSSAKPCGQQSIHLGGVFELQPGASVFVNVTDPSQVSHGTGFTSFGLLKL

Going from B1 to B2, the Kd falls from 3000 pM to 453 pM (6.6-fold). The second binds more tightly here.

Compared with B10, B16 is 4.2-fold lower in Kd: 491 pM for the first, 118 pM for the second. The second binds more tightly here.

Going from B1 to B2, the koff falls from 0.000555 s⁻¹ to 0.000106 s⁻¹ (5.2-fold).

Compared with B10, B16 is 2-fold lower in koff: 0.000211 s⁻¹ for the first, 0.000108 s⁻¹ for the second.

B1 and B2 are within 1.5-fold of each other in kon: 185000 M⁻¹ s⁻¹ for the first, 234000 M⁻¹ s⁻¹ for the second.

First: B10
Second: B16
The kon of the first is 2.1-fold lower: 429000 M⁻¹ s⁻¹ for the first, 915000 M⁻¹ s⁻¹ for the second.
